Experimental data as given in patent US20030087407A1.

Experiments:
[1] = biological target: amyloid β-peptide 1-42 (Aβ1-42) (UniProt P05067); experiment: cell-based or functional assay
[2] = biological target: amyloid β-peptide 1-40 (Aβ1-40) (UniProt P05067); experiment: cell-based or functional assay
[3] = biological target: amyloid β-peptide 1-40 (Aβ1-40) (UniProt P05067); experiment: quenching of intrinsic Tyr10 fluorescence of Aβ1-40 in solution at approximately 4 µM iAβ
[4] = biological target: amyloid β-peptide 1-40 (Aβ1-40) (UniProt P05067); experiment: quenching of intrinsic Tyr10 fluorescence of Aβ1-40 in solution by added iAβ, non-linear regression to a rectangular hyperbola

- % of amyloid remaining, ThT fluorometric assay, 10-fold molar excess of peptide, 2 days [1]: 57.9 % of amyloid
- inhibition of amyloid formation, thioflavine T fluorometric assay, 24 h, 5-fold molar excess of iAβ (% of inhibition) [1]: 28.7
- inhibition of amyloid formation, thioflavine T fluorometric assay, 24 h, 20-fold molar excess of iAβ (% of inhibition) [1]: 72.3
- inhibition of amyloid formation, thioflavine T fluorometric assay, 24 h, 40-fold molar excess of iAβ (% of inhibition) [1]: 80.6
- reduction of preformed fibrils, thioflavine T fluorometric assay, 24 h, 40-fold molar excess of iAβ (% fibril reduction) [1]: 51
- % of amyloid remaining, ThT fluorometric assay, 10-fold molar excess of peptide, 2 days [2]: 25.5 % of amyloid
- amyloid formation, thioflavine T fluorometric assay, 24 h, 5-fold molar excess of iAβ (% of amyloid detectable in the absence of inhibitor) [2]: 33.9%
- amyloid formation, thioflavine T fluorometric assay, 24 h, 20-fold molar excess of iAβ (% of amyloid detectable in the absence of inhibitor) [2]: 13.7%
- maximum quenching of the total fluorescence [3]: 12.6%
- Kd [4]: 75.9 nM
Binder: RDLPFFPVPID [inhibitor of Aβ fibrillogenesis peptide (iAβ)]
